This note sets out measurements from patent US20210187091A1 (DUKE UNIVERSITY, published 2021).

The target of experiment [1] is T1, Man9-V3 glycopeptide (HIV-1 clade B JRFL, Man9GlcNAc2 at N301 and at N332; disulfide bridge between C296 and C331 (cyclized); biotin tag).
T1 construct: 30-amino acid synthetic V3 glycopeptide based on the clade B JRFL mini-V3 construct (residues 305-320 deleted); captured by its biotin on streptavidin sensors, or tetramerized on streptavidin for sorting; also called Man-V3 glycopeptide; Man9-V3-biotin
T1 peptide: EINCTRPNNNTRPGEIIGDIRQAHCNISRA
As to the kind of experiment: BLI, biotinylated Man9-V3 on streptavidin sensors, antibody in solution, bivalent avidity model. On the technique in general: BLI is a label-free optical method that tracks binding on a fibre tip over time.
Procedure: Kinetics analyses were performed by global curve fitting using bivalent avidity model and as described in methods (“Affinity measurements” section).
Antibody binding kinetic rate constants (ka, kd) of the Man9-V3 glycopeptide and its aglycone form (16) were measured by Bio-layer Interferometry (BLI, ForteBio Octet Red96) measurements. The BLI assay was performed using streptavidin coated sensors (ForteBio) to capture either biotin-tagged Man₉-V3 glycopeptide or Aglycone-V3 peptide. The V3 peptide immobilized sensors were dipped into varying concentrations of antibodies following blocking of sensors in BSA (0.1%). Antibody concentrations ranged from 0.5 to 150 μg/mL and non-specific binding interactions were subtracted using the control anti-RSV Palivizumab (Synagis) mAb. Rate constants were calculated by global curve fitting analyses to the Bivalent Avidity model of binding responses with a 10 min association and 15 min dissociation interaction time. The dissociation constant (Kd) values without avidity contribution were derived using the initial components of the association and dissociation rates (ka1 and kd1) respectively.

Experiment [2] has as its target T1, Man9-V3 glycopeptide. As to the kind of experiment: BLI, biotinylated Man9-V3 on streptavidin sensors, antibody in solution.
For experiment [3], the target named is T2, cell surface membrane expressed CH848 TF Env trimer (CHO cells) (HIV-1 clade C (CH848 …)).
T2 construct: also called cell surface membrane expressed gp160 trimers; CH848 Env trimer expressed on the cell surface of CHO cells
As to the kind of experiment: flow cytometry on CHO cells expressing CH848 TF Env trimer.

B1: DH270.6 (antibody, V domains shown)
VH: QVQLVQSGAQMKNPGASVKVSCAPSGYTFTDFYIHWLRQAPGQGLQWMGWMNPQTGRTNTARNFQGRVIMTRDTSIGTAYMELRSLTSDDTAIYYCTTGGWISLYYDSSYYPNFDHWGQGTLLTVSS
VL: TSLLTQPASVSGSPGQSITISCTGTKYDVGSHDLVSWYQQYPGKVPKYMIYEVNKRPSGVSNRFSGSKSGNTASLTISGLRAEDEADYYCCSFGGSATVVCGGGTKVTVL
notes: Recombinant IgG
Regarding B1, the Kd in experiment [1] worked out at 188 nM.

B2: DH270.IA3 (antibody, V domains shown)
VH: EVQLVESGPELKEPGASVKVSCKASGYTFTDYYIHWVRQAPGQGLEWMAWINPTTGRSSFARGFQGRVIMTRETSVSTAYMELRRLRSDDTAVYYCAKAGYIALYVDYSGYPNFNSWGQGTLVTVSS
VL: QSALTQPASVSGSPGQSITISCTGTSYDVGSYNLVSWYQQHPGKAPKLIIYEVSQWPSGVSKRFSGSKSGNTASLTISGLQAEDEAHYYCCSYAGSSTVIFGGGTSLTVL
As to B2, in experiment [2], the Kd is above 10000 nM.

B3: DH270.IA4 (antibody, V domains shown)
VH: QVQLVQSGAEVKKPGASVKVSCKASGYTFTDYYIHWVRQAPGQGLEWMGWINPNTGRTNYAQKFQGRVTMTRDTSISTAYMELSRLRSDDTAVYYCARGGWIGLYYDSSGYPNFDYWGQGTLVTVSS
VL: QSALTQPASVSGSPGQSITISCTGTSYDVGSYNLVSWYQQHPGKAPKLMIYEVSKRPSGVSNRFSGSKSGNTASLTISGLQAEDEADYYCCSYAGSSTVIFGGGTKLTVL
notes: Inferred intermediate, recombinant IgG; copies: 2 + 2
For the molecule B3, in experiment [3], the binding result was “no binding (tested: 5 µg/mL)”.

B4: DH270.UCA (antibody, V domains shown)
VH: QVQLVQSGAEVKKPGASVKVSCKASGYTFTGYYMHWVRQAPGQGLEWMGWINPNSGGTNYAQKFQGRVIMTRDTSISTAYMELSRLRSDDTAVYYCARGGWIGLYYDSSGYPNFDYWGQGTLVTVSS
VL: QSALTQPASVSGSPGQSITISCTGTSSDVGSYNLVSWYQQHPGKAPKLMIYEVSKRPSGVSNRFSGSKSGNTASLTISGLQAEDEADYYCCSYAGSSTVIFGGGTKLTVL
notes: also called UCA4; DH270UCA4
As to B4, the binding result in experiment [3] was “no binding (tested: 5 µg/mL)”.

B5: DH270.IA2 (antibody, V domains shown)
VH: QVQLVQSGAEMKKPGASVKVSCKASGYTFTDYYIHWVRQAPGQGLEWMGWINPNTGRTNYAQKFQGRVTMTRDTSISTAYMELSRLTSDDTAVYYCATGGWIGLYYDSSGYPNFDYWGQGTLVTVSS
VL: QSALTQPASVSGSPGQSITISCTGTSYDVGSYNLVSWYQQHPGKAPKYMIYEVNKRPSGVSNRFSGSKSGNTASLTISGLQAEDEADYYCCSYAGSSTVIFGGGTKLTVL
notes: Inferred intermediate, recombinant IgG
As for B5, in experiment [3], the binding result is “no binding (tested: 5 µg/mL)”.
